Columns and labels:
[1] = molecular target: recombinant mouse cathepsin L (MmCL) (mouse) (UniProt P06797)
[2] = molecular target: Eudiplozoon nipponicum cathepsin L3 (EnCL3) (Eudiplozoon nipponicum)
[3] = molecular target: recombinant Ixodes ricinus asparaginyl endopeptidase (IrAe) (Ixodes ricinus)
[4] = molecular target: Eudiplozoon nipponicum cathepsin B (EnCB) (Eudiplozoon nipponicum)

Chain of UniProt P06797 (P06797 18-334): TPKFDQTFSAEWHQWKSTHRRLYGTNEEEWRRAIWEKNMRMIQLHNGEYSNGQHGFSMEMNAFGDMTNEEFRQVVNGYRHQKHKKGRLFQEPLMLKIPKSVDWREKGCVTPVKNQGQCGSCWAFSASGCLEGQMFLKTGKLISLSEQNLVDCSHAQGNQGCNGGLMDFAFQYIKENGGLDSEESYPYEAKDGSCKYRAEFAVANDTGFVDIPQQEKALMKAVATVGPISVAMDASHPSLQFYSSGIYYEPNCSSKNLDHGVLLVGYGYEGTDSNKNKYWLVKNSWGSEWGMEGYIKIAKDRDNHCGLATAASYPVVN

## recombinant Eudiplozoon nipponicum stefin (rEnStef) (natural protein)
[1]
  IC50 of inhibition of peptidase activity (continuous fluorometric assay, Z-Phe-Arg-AMC, 25 mM MES pH 6, 5 mM DTT; peptidase 5 nM): 133 nM
[2]
  IC50 of inhibition of peptidase activity (continuous fluorometric assay, Z-Phe-Arg-AMC, 25 mM MES pH 6, 5 mM DTT; peptidase 10 nM): 46.7 nM
[3]
  IC50 of inhibition of peptidase activity (continuous fluorometric assay, Z-Ala-Ala-Asn-AMC, 25 mM MES pH 6, 5 mM DTT; peptidase 10 nM): 371 nM
[4]
  IC50 of inhibition of peptidase activity (continuous fluorometric assay, Z-Phe-Arg-AMC, 25 mM MES pH 6, 5 mM DTT; peptidase 10 nM): 13.7 nM

Reference: PMC5727476
